# System: Escherichia coli TOP10
# Assay: shrunken log2 fold change of peptide-encoding DNA abundance (4.5 h post-induction vs induction); higher = less antimicrobial activity (less host growth inhibition)
# Settings: time post-induction: 4.5 h; library: site-saturation at positions 5, 18, 19, 20
# 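Also: peptides expressed intracellularly from a pBAD plasmid library in pooled LB shake-flask culture, induced with 0.3% L-arabinose, DNA abundance read by NGS, three biological replicates, DESeq2 with apeglm shrinkage.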
row,Sequence,shrunken log2 fold change
1,RRIRYRPPRLPRPRPRPHAFPRP,0.0566
2,RRIRYRPPRLPRPRPRPHAGPRP,0.0561
3,RRIRYRPPRLPRPRPRPHANPRP,-0.16
4,RRIRYRPPRLPRPRPRPHAQPRP,-0.0405
5,RRIRYRPPRLPRPRPRPHCFPRP,-0.165
6,RRIRYRPPRLPRPRPRPHESPRP,0.00952
7,RRIRYRPPRLPRPRPRPHFAPRP,-0.284
8,RRIRYRPPRLPRPRPRPHFKPRP,-0.346
9,RRIRYRPPRLPRPRPRPHFMPRP,-0.0918
10,RRIRYRPPRLPRPRPRPHHEPRP,-0.0815
11,RRIRYRPPRLPRPRPRPHKYPRP,-1.08
12,RRIRYRPPRLPRPRPRPHLWPRP,-0.255
13,RRIRYRPPRLPRPRPRPHNMPRP,-0.17
14,RRIRYRPPRLPRPRPRPHQLPRP,-0.191
15,RRIRYRPPRLPRPRPRPHQSPRP,0.0552
16,RRIRYRPPRLPRPRPRPHRDPRP,-0.288
17,RRIRYRPPRLPRPRPRPHSCPRP,-0.00211
18,RRIRYRPPRLPRPRPRPHSKPRP,-0.463
19,RRIRYRPPRLPRPRPRPHSRPRP,-0.103
20,RRIRYRPPRLPRPRPRPHTKPRP,-0.149
21,RRIRYRPPRLPRPRPRPHVWPRP,0.0773
22,RRIRYRPPRLPRPRPRPHWVPRP,0.0405
23,RRIRYRPPRLPRPRPRPHWWPRP,-0.0763
24,RRIRYRPPRLPRPRPRPHYEPRP,-1.49
25,RRIRYRPPRLPRPRPRPHYIPRP,-0.318

row,Sequence,shrunken log2 fold change
1,RRIRYRPPRLPRPRPRPHYQPRP,-0.522
2,RRIRYRPPRLPRPRPRPHYRPRP,-0.433
3,RRIRYRPPRLPRPRPRPIAFPRP,-0.564
4,RRIRYRPPRLPRPRPRPIASPRP,-0.196
5,RRIRYRPPRLPRPRPRPIATPRP,0.0782
6,RRIRYRPPRLPRPRPRPICFPRP,-0.332
7,RRIRYRPPRLPRPRPRPIDMPRP,-0.315
8,RRIRYRPPRLPRPRPRPIEQPRP,-0.00931
9,RRIRYRPPRLPRPRPRPIFHPRP,-0.456
10,RRIRYRPPRLPRPRPRPIFIPRP,-0.631
11,RRIRYRPPRLPRPRPRPIFKPRP,-0.133
12,RRIRYRPPRLPRPRPRPIHRPRP,-0.0635
13,RRIRYRPPRLPRPRPRPIMAPRP,-0.708
14,RRIRYRPPRLPRPRPRPINEPRP,-0.181
15,RRIRYRPPRLPRPRPRPINQPRP,-0.113
16,RRIRYRPPRLPRPRPRPIPEPRP,0.0704
17,RRIRYRPPRLPRPRPRPIPQPRP,-0.0934
18,RRIRYRPPRLPRPRPRPIQDPRP,-0.00166
19,RRIRYRPPRLPRPRPRPIRHPRP,0.0879
20,RRIRYRPPRLPRPRPRPISEPRP,-0.0398
21,RRIRYRPPRLPRPRPRPISLPRP,-0.333
22,RRIRYRPPRLPRPRPRPITHPRP,-0.211
23,RRIRYRPPRLPRPRPRPITKPRP,-0.184
24,RRIRYRPPRLPRPRPRPIVLPRP,-0.213
25,RRIRYRPPRLPRPRPRPIVMPRP,-0.254

row,Sequence,shrunken log2 fold change
1,RRIRYRPPRLPRPRPRPIVYPRP,-1.23
2,RRIRYRPPRLPRPRPRPIWAPRP,-0.089
3,RRIRYRPPRLPRPRPRPKCPPRP,0.137
4,RRIRYRPPRLPRPRPRPKCRPRP,-0.153
5,RRIRYRPPRLPRPRPRPKDWPRP,-0.176
6,RRIRYRPPRLPRPRPRPKFDPRP,-0.138
7,RRIRYRPPRLPRPRPRPKHEPRP,-0.0393
8,RRIRYRPPRLPRPRPRPKHVPRP,-0.4
9,RRIRYRPPRLPRPRPRPKIDPRP,-0.344
10,RRIRYRPPRLPRPRPRPKITPRP,-0.57
11,RRIRYRPPRLPRPRPRPKMWPRP,-0.113
12,RRIRYRPPRLPRPRPRPKNLPRP,-0.36
13,RRIRYRPPRLPRPRPRPKQDPRP,-0.488
14,RRIRYRPPRLPRPRPRPKSHPRP,0.49
15,RRIRYRPPRLPRPRPRPKSKPRP,-0.428
16,RRIRYRPPRLPRPRPRPKSNPRP,-0.206
17,RRIRYRPPRLPRPRPRPKSRPRP,-0.552
18,RRIRYRPPRLPRPRPRPKSVPRP,-0.187
19,RRIRYRPPRLPRPRPRPKTYPRP,-0.781
20,RRIRYRPPRLPRPRPRPKVAPRP,-0.013
21,RRIRYRPPRLPRPRPRPLCIPRP,-1.22
22,RRIRYRPPRLPRPRPRPLEHPRP,-0.26
23,RRIRYRPPRLPRPRPRPLEVPRP,-0.335
24,RRIRYRPPRLPRPRPRPLFPPRP,-0.643
25,RRIRYRPPRLPRPRPRPLGGPRP,-0.0546

row,Sequence,shrunken log2 fold change
1,RRIRYRPPRLPRPRPRPLHWPRP,-0.211
2,RRIRYRPPRLPRPRPRPLKLPRP,-0.772
3,RRIRYRPPRLPRPRPRPLKYPRP,-0.352
4,RRIRYRPPRLPRPRPRPLMWPRP,-0.0343
5,RRIRYRPPRLPRPRPRPLNIPRP,-1.1
6,RRIRYRPPRLPRPRPRPLTPPRP,0.0282
7,RRIRYRPPRLPRPRPRPLVFPRP,-0.439
8,RRIRYRPPRLPRPRPRPLVIPRP,-0.782
9,RRIRYRPPRLPRPRPRPLVQPRP,-0.49
10,RRIRYRPPRLPRPRPRPLWYPRP,-0.824
11,RRIRYRPPRLPRPRPRPLYEPRP,-0.562
12,RRIRYRPPRLPRPRPRPLYMPRP,-0.441
13,RRIRYRPPRLPRPRPRPLYWPRP,-0.943
14,RRIRYRPPRLPRPRPRPMACPRP,-0.000921
15,RRIRYRPPRLPRPRPRPMCQPRP,-0.394
16,RRIRYRPPRLPRPRPRPMFKPRP,-0.825
17,RRIRYRPPRLPRPRPRPMHIPRP,-0.0235
18,RRIRYRPPRLPRPRPRPMHLPRP,-0.00136
19,RRIRYRPPRLPRPRPRPMHMPRP,-0.113
20,RRIRYRPPRLPRPRPRPMIRPRP,-0.0021
21,RRIRYRPPRLPRPRPRPMKSPRP,-0.416
22,RRIRYRPPRLPRPRPRPMLLPRP,-0.871
23,RRIRYRPPRLPRPRPRPMMQPRP,-1.94
24,RRIRYRPPRLPRPRPRPMNDPRP,-0.188
25,RRIRYRPPRLPRPRPRPMPCPRP,-0.0166

row,Sequence,shrunken log2 fold change
1,RRIRYRPPRLPRPRPRPMSCPRP,-0.115
2,RRIRYRPPRLPRPRPRPMSSPRP,-0.0121
3,RRIRYRPPRLPRPRPRPMTMPRP,-0.615
4,RRIRYRPPRLPRPRPRPMWAPRP,-0.0298
5,RRIRYRPPRLPRPRPRPMWLPRP,-0.224
6,RRIRYRPPRLPRPRPRPNAEPRP,-0.122
7,RRIRYRPPRLPRPRPRPNCHPRP,-0.507
8,RRIRYRPPRLPRPRPRPNDHPRP,-1.23
9,RRIRYRPPRLPRPRPRPNEDPRP,-0.246
10,RRIRYRPPRLPRPRPRPNEYPRP,-0.519
11,RRIRYRPPRLPRPRPRPNFPPRP,-0.313
12,RRIRYRPPRLPRPRPRPNHSPRP,-0.498
13,RRIRYRPPRLPRPRPRPNHVPRP,-0.219
14,RRIRYRPPRLPRPRPRPNIIPRP,-1.01
15,RRIRYRPPRLPRPRPRPNKCPRP,-0.269
16,RRIRYRPPRLPRPRPRPNKEPRP,-0.0622
17,RRIRYRPPRLPRPRPRPNKPPRP,-0.18
18,RRIRYRPPRLPRPRPRPNLFPRP,-0.676
19,RRIRYRPPRLPRPRPRPNMMPRP,-0.645
20,RRIRYRPPRLPRPRPRPNMSPRP,-0.675
21,RRIRYRPPRLPRPRPRPNPDPRP,-0.407
22,RRIRYRPPRLPRPRPRPNPIPRP,-0.711
23,RRIRYRPPRLPRPRPRPNPKPRP,-0.0294
24,RRIRYRPPRLPRPRPRPNPSPRP,-0.0272
25,RRIRYRPPRLPRPRPRPNREPRP,0.00551

row,Sequence,shrunken log2 fold change
1,RRIRYRPPRLPRPRPRPNRFPRP,-0.00943
2,RRIRYRPPRLPRPRPRPNRRPRP,-0.023
3,RRIRYRPPRLPRPRPRPNRSPRP,-0.496
4,RRIRYRPPRLPRPRPRPNSAPRP,-0.805
5,RRIRYRPPRLPRPRPRPNSTPRP,-1.01
6,RRIRYRPPRLPRPRPRPNYCPRP,-1.16
7,RRIRYRPPRLPRPRPRPNYMPRP,-0.357
8,RRIRYRPPRLPRPRPRPPAFPRP,-0.242
9,RRIRYRPPRLPRPRPRPPCHPRP,-0.285
10,RRIRYRPPRLPRPRPRPPDDPRP,0.141
11,RRIRYRPPRLPRPRPRPPDGPRP,0.176
12,RRIRYRPPRLPRPRPRPPEEPRP,0.0153
13,RRIRYRPPRLPRPRPRPPEFPRP,0.00678
14,RRIRYRPPRLPRPRPRPPFLPRP,-0.178
15,RRIRYRPPRLPRPRPRPPGWPRP,0.167
16,RRIRYRPPRLPRPRPRPPITPRP,-0.834
17,RRIRYRPPRLPRPRPRPPKFPRP,-0.0892
18,RRIRYRPPRLPRPRPRPPKPPRP,0.144
19,RRIRYRPPRLPRPRPRPPKYPRP,-0.97
20,RRIRYRPPRLPRPRPRPPLTPRP,-0.403
21,RRIRYRPPRLPRPRPRPPMAPRP,0.298
22,RRIRYRPPRLPRPRPRPPMKPRP,-0.137
23,RRIRYRPPRLPRPRPRPPNQPRP,-0.44
24,RRIRYRPPRLPRPRPRPPPNPRP,0.873
25,RRIRYRPPRLPRPRPRPPQNPRP,0.191
